# Assay results as given in US20120269817A1 (Bayer, published 2012).
# T1: human tissue factor pathway inhibitor (TFPI) (human, UniProt P10646 29-304, limits assumed)
# T1 sequence (looked up): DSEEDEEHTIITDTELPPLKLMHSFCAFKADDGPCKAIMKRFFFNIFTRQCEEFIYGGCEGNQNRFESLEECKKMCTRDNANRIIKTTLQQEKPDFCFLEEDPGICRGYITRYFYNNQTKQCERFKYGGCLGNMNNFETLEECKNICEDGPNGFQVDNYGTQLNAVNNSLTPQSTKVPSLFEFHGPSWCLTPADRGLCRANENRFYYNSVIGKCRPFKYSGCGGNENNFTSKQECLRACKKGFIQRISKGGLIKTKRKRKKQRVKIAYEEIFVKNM
# T2: mouse tissue factor pathway inhibitor (TFPI) (mouse, UniProt O54819 29-289, limits assumed)
# T2 construct: Bought protein; also called mouse TFPI; mTFPI
# T2 sequence (looked up): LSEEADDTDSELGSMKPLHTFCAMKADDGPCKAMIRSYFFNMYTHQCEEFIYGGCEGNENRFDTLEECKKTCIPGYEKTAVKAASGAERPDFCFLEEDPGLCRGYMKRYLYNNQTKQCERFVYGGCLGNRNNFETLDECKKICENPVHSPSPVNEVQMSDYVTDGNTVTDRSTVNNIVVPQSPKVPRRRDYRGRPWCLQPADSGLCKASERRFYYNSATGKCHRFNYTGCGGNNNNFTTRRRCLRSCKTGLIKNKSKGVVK
# T3: human TFPI K1 (human, UniProt P10646 29-107, limits assumed)
# T3 construct: domain: K1; also called Kunitz domain 1
# T3 sequence (looked up): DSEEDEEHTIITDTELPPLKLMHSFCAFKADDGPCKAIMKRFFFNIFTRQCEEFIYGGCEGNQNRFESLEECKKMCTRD
# Tests used:
# BSA = target: T4, BSA (bovine, UniProt P02769 25-607); assay: ELISA
# T4 construct: also called bovine serum albumin
# Method: (§1) To select antibody clones that bind to human TFPI, Fab genes of the phage clones from the second and third round of panning were subcloned into a bacterial expression vector and expressed in E. coli strain TG1. The bacterial lysate was added to the wells of the human TFPI-coated Maxisorp plates. After washing, HRP-conjugated goat anti-human Fab was used as a detection antibody and the plates were developed by adding AmplexRed (Invitrogen) with hydrogen peroxide. A signal of at least five-fold higher than the background was considered as positive. The cross reactivity of the anti-human TFPI antibodies to mouse TFPI was determined by a similar mouse TFPI-binding ELISA. The plates were coated with mouse TFPI (R&D System), BSA and lysozyme. The later two antigens were used as negative controls.
# [1] = target: T1, human tissue factor pathway inhibitor …; assay: cell-based or functional assay
# [2] = target: T1, human tissue factor pathway inhibitor …; assay: ELISA, Fab on coated TFPI
# Method: as §1
# (§2) Purified Fab antibodies were used to determine EC₅₀ of anti-TFPI antibodies to human or mouse TFPI. EC₅₀ was assessed in an ELISA, similarly as described above. The results were analyzed using SoftMax. The binding affinity of anti-TFPI antibodies was determined in a Biacore assay. Briefly, the antigen, either human or mouse TFPI, was immobilized on the CM5-chips using the amine coupling kit (GE HealthCare) according to the instructions of the manufacturer. The amount of immobilized TFPI was adjusted to the mass of the antigen to give approximate 300 RU. The antibody Fabs were analyzed in mobile phase and at least five different concentrations (0.1, 0.4, 1.6, 6.4 and 25 nM) of the purified antibodies were used in the Biacore assay. The kinetics and binding affinity were calculated using Biacore T100 Evaluation software.
# [3] = target: T2, mouse tissue factor pathway inhibitor …; assay: ELISA, Fab on coated TFPI
# Method: as §1, §2
# [4] = target: T1, human tissue factor pathway inhibitor …; assay: Biacore, TFPI on CM5 chip, Fab in mobile phase
# Method: as §2
# [5] = target: T2, mouse tissue factor pathway inhibitor …; assay: Biacore, TFPI on CM5 chip, Fab in mobile phase
# Method: as §2
# human TFPI K1 = target: T3, human TFPI K1; assay: Western blots and ELISA
# Method: Western blots and ELISA were used to determine which domain(s) of TFPI of the inhibitory antibodies bind. Recombinant full length human TFPI or TFPI domains were used for these studies. ELISA was similar to Example 3. In the Western Blot, human TFPI or domains were run on 4-12% Bis-Tris SDS PAGE running buffer MES (Invitrogen, Carlsbad, Calif.) and then transferred to cellulose membrane. After incubation with inhibitory antibodies for 10 min, the membrane was washed three times using SNAPid system (Millipore, Billerica, Mass.). A HRP conjugated donkey anti-mouse antibody (Pierce, Rockford, Ill.) at 1 to 10,000 dilution was incubated with the membrane for 10 min. After a similar wash step, the membrane was developed using SuperSignal substrate (Pierce, Rockford, Ill.). Whereas the control anti-Kunitz domain 1 antibody binds to full length TFPI, truncated TFPI and domains, inhibitory anti-TFPI antibodies only bind to TFPI containing Kunitz domain 2.
# T4 sequence (P02769 25-607 limits assumed): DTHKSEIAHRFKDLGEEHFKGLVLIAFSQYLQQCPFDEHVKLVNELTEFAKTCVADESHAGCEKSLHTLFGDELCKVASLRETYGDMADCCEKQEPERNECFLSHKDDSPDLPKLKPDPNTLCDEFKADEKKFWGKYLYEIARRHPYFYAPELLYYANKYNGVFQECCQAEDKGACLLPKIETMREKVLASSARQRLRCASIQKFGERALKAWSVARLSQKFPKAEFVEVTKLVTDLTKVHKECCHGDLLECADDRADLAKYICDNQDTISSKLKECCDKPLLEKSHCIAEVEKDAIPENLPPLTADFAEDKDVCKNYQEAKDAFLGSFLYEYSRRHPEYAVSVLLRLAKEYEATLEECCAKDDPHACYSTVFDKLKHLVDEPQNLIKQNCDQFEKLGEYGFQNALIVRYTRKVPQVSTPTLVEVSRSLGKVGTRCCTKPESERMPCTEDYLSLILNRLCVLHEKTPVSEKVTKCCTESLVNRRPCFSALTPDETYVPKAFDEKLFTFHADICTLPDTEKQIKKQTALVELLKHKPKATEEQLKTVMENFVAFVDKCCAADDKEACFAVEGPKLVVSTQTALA
binding result (BSA),% inhibition of hTFPI activity [1],dPT in hemoA plasma [1],EC50 [2],EC50 [3],Kd [4],Kd [5],binding result (human TFPI K1),Binder
no binding,0%,72.3 s,32.8 nM,108 nM,21.6 nM,33.6 nM,–,"TP-3C1 Fab (Fab, V domains shown, Human Fab from HuCal Gold, expressed in E. coli TG1; Shares its VL with TP-2G9 and its VH with TP-3F2) VH: QVQLVESGGGLVQPGGSLRLSCAASGFTFSSYSMHWVRQAPGKGLEWVSGISYSSSFTYYADSVKGRFTISRDNSKNTLYLQMNSLRAEDTAVYYCARALGGGVDYWGQGTLVTVSS VL: DIALTQPASVSGSPGQSITISCTGTSSDLGGFNTVSWYQQHPGKAPKLMIYSVSSRPSGVSNRFSGSKSGNTASLTISGLQAEDEADYYCQSYDLNNLVFGGGTKLTVLG"
no binding,0%,82.7 s,10.8 nM,194 nM,48.5 nM,35.7 nM,–,"TP-2G9 Fab (Fab, V domains shown, Human Fab from HuCal Gold, expressed in E. coli TG1) VH: QVQLVESGGGLVQPGGSLRLSCAASGFTFNSYAMTWVRQAPGKGLEWVSAIKSDGSNTYYADSVKGRFTISRDNSKNTLYLQMNSLRAEDTAVYYCARNDSGWFDVWGQGTLVTVSS VL: DIALTQPASVSGSPGQSITISCTGTSSDLGGFNTVSWYQQHPGKAPKLMIYSVSSRPSGVSNRFSGSKSGNTASLTISGLQAEDEADYYCQSYDLNNLVFGGGTKLTVLG"
–,–,–,–,–,–,–,no binding,"TP-2A8-IgG (antibody, V domains shown, Chimeric IgG: human variable regions on mouse constant regions, murine IgG1 isotype, made in HKB11 cells) VH: QVQLVESGGGLVQPGGSLRLSCAASGFTFRSYGMSWVRQAPGKGLEWVSSIRGSSSSTYYADSVKGRFTISRDNSKNTLYLQMNSLRAEDTAVYYCARKYRYWFDYWGQGTLVTVSS VL: DIELTQPPSVSVAPGQTARISCSGDNLRNYYAHWYQQKPGQAPVVVIYYDNNRPSGIPERFSGSNSGNTATLTISGTQAEDEADYYCQSWDDGVPVFGGGTKLTVLG"
no binding,15%,70.7 s,33.6 nM,47.1 nM,16 nM,25.7 nM,–,"TP-3G3 Fab (Fab, V domains shown, Human Fab from HuCal Gold, expressed in E. coli TG1) VH: QVQLVESGGGLVQPGGSLRLSCAASGFTFSSYSMSWVRQAPGKGLEWVSSISSSSSNTYYGDSVKGRFTISRDNSKNTLYLQMNSLRAEDTAVYYCARMHYKGMDIWGQGTLVTVSS VL: DIQMTQSPSSLSASVGDRVTITCRASQNIHSHLNWYQQKPGKAPKLLIYDASSLQSGVPSRFSGSGSGTDFTLTISSLQPEDFAVYYCQQYYDYPLTFGQGTKVEIKR"
no binding,0%,62.5 s,0.6 nM,0.6 nM,2.01 nM,9.33 nM,–,"TP-2C7 Fab (Fab, V domains shown, Human Fab from HuCal Gold, expressed in E. coli TG1) VH: QVQLQQSGPGLVKPSQTLSLTCAISGDSVSSNSAAWGWIRQSPGRGLEWLGIIYYRSKWYNHYAVSVKSRITINPDTSKNQFSLQLNSVTPEDTAVYYCARSNWSGYFDYWGQGTLVTVSS VL: DIQMTQSPSSLSASVGDRVTITCRASQDIRNNLAWYQQKPGKAPKLLIYAASSLQSGVPSRFSGSGSGTDFTLTISSLQPEDFAVYYCQQRNGFPLTFGQGTKVEIKR"
no binding,100%,53.9 s,0.74 nM,2.64 nM,15.8 nM,51.8 nM,–,"TP-4B7 Fab (Fab, V domains shown, Human Fab from HuCal Gold, expressed in E. coli TG1) VH: QVQLQQSGPGLVKPSQTLSLTCAISGDSVSSNSAAWSWIRQSPGRGLEWLGIIYKRSKWYNDYAVSVKSRITINPDTSKNQFSLQLNSVTPEDTAVYYCARWHSDKHWGFDYWGQGTLVTVSS VL: DIVMTQSPLSLPVTPGEPASISCRSSQSLVFSDGNTYLNWYLQKPGQSPQLLIYKGSNRASGVPDRFSGSGSGTDFTLKISRVEAEDVGVYYCQQYDSYPLTFGQGTKVEIKR"
no binding,23%,70.9 s,0.62 nM,1040 nM,6.57 nM,29.8 nM,–,"TP-2A2 Fab (Fab, V domains shown, Human Fab from HuCal Gold, expressed in E. coli TG1) VH: QVQLVESGGGLVQPGGSLRLSCAASGFTFSNNAMNWVRQAPGKGLEWVSTISYDGSNTYYADSVKGRFTISRDNSKNTLYLQMNSLRAEDTAVYYCARQAGGWTYSYTDVWGQGTLVTVSS VL: DIELTQPPSVSVAPGQTARISCSGDNIRTYYVHWYQQKPGQAPVVVIYGDSKRPSGIPERFSGSNSGNTATLTISGTQAEDEADYYCQSYDSEADSEVFGGGTKLTVLG"
no binding,0%,79 s,792 nM,202 nM,115 nM,25.2 nM,–,"TP-2E5 Fab (Fab, V domains shown, Human Fab from HuCal Gold, expressed in E. coli TG1) VH: QVQLQQSGPGLVKPSQTLSLTCAISGDSVSSNSAAWSWIRQSPGRGLEWLGMIFYRSKWNNDYAVSVKSRITINPDTSKNQFSLQLNSVTPEDTAVYYCARVNANGYYAYVDLWGQGTLVTVSS VL: DIQMTQSPSSLSASVGDRVTITCRASQPIYNSLSWYQQKPGKAPKLLIYGVSNLQSGVPSRFSGSGSGTDFTLTISSLQPEDFAVYYCLQVDNLPITFGQGTKVEIKR"
no binding,93%,75.1 s,74.4 nM,8.68 nM,1140 nM,49.1 nM,–,"TP-3G1 Fab (Fab, V domains shown, Human Fab from HuCal Gold, expressed in E. coli TG1) VH: QVQLQQSGPGLVKPSQTLSLTCAISGDSVSSNSGGWGWIRQSPGRGLEWLGLIYYRSKWYNAYAVSVKSRITINPDTSKNQFSLQLNSVTPEDTAVYYCARYLGSNFYVYSDVWGQGTLVTVSS VL: DIQMTQSPSSLSASVGDRVTITCRASQGISSYLHWYQQKPGKAPKLLIYGASTLQSGVPSRFSGSGSGTDFTLTISSLQPEDFATYYCQQQNGYPFTFGQGTKVEIKR"
no binding,0%,72.3 s,42.8 nM,327 nM,21.6 nM,23.7 nM,–,"TP-3A4 Fab (Fab, V domains shown, Human Fab from HuCal Gold, expressed in E. coli TG1) VH: QVQLVESGGGLVQPGGSLRLSCAASGFTFSSYWMHWVRQAPGKGLEWVSSISYDSSNTYYADSVKGRFTISRDNSKNTLYLQMNSLRAEDTAVYYCARYGGMDYWGQGTLVTVSS VL: DIELTQPPSVSVAPGQTARISCSGDNLRDKYASWYQQKPGQAPVLVIYSKSERPSGIPERFSGSNSGNTATLTISGTQAEDEADYYCSSYTLNPNLNYVFGGGTKLTVLG"
–,–,–,–,–,–,–,no binding,"TP-2B3 chimeric IgG (antibody, V domains shown, Chimeric IgG: human variable regions on mouse constant regions, murine IgG1 isotype, made in HKB11 cells) VH: QVQLQQSGPGLVKPSQTLSLTCAISGDSVSSNSAAWGWIRQSPGRGLEWLGMIYYRSKWYNSYAVSVKSRITINPDTSKNQFSLQLNSVTPEDTAVYYCARTMSKYGGPGMDVWGQGTLVTVSS VL: DIVLTQSPATLSLSPGERATLSCRASQNIGSNYLAWYQQKPGQAPRLLIYGASTRATGVPARFNGSGSGTDFTLTISSLEPEDFAVYYCQQLNSIPVTFGQGTKVEIKR"
